# Laboratory results as given in the DeepSol protein solubility set.
# Assay: soluble on expression in E. coli; label from the status in PepcDB or PDB records
row,Sequence,soluble on expression in E. coli
1,VSGTRPAARRTNLTAAQNVVRSVDAEERIAWVSKALCRTTDPDELFVRGAAQRKAAVICRHCPVMQECAADALDNKVEFGVWGGMTERQRRALLKQHPEVVSWSDYLEKRKRRTGTAG,soluble
2,MSKLVYLLLMIFFLNPAWANTHYHQHPVSPLANALRTGTDTNGNALYLCRAKLFNSIQPGKTWAGYGRCNVPYGGKEYVLSQFTIPNQNEFGRYSWEPNVEHALLMGKDTNGNPLFVCQSNFNGSIQPGKTWPGYSHCNISYGGREIITDNYRILSRPTEIIVRTQPPVHRHPSQNRHYHYLEHHHHHH,soluble
3,MFSKSSNRFGTTSIFGDQSIKDEYRNRQRRLSLIGGPISGTSPNRRESLVRELRTVSLHQYTEDPTLAWEMLKEKRPVKPVRQMRLDTPVKPDHVRFVCIGCTHGEQFDISKLPPGDVLLVAGDFTSCGLPNEVHNFNKLLGKLKYSYKVVIGGNHECTFDDTFLKLKQESEPKEMALKQALLSAIHSDSKGGISAKDLLSNAIYLEDNVIELFGITIYGTPWQPKVDNWAFNLSRGQQLLDKWNLIPAALTCF,not soluble
4,MGGAERVMATLANEFVKRGHQVRLVTLKKAVSAYELDKRVEFIGGGADINSGNFLIKRIQMISAVIKGTLFYRRQLREYKPDIILSFLTYTNLLSVINNRISRVKYPVVVSERCDPRKRSKLLIKLCNIVYPLADCIVCQSKVIQDYFLNKNPKSVTKVIPNPVNEECINKEEIIKRRKLIVAVGRLSNQKNYDLLIDAFSDIANEYSEYRLEIYGEGPERERLQKKINRLGLNDRIQLMGTKTNVMKHIADAQLFVMSSNFEGFPNALAEAMASGLPVISTNFPSGVAKELIIDGENGYVVDINNREQMADAMRKILGDPLTITKMSKNNVLLREKLNVKTVANMWENLFNDILEKRTKNEKN,not soluble
5,AIIWRRAANLVLLDETGRRVDDLAFRSERADLAVIAGEGAERAVPEALEILSAARPILNRVRGLVRMGERRWDIVLDRGQRVLLPVEDPVAAVERMIALDEAEDLLDRDVISVDLR,not soluble
6,MADNGNEEDRNGYIINRTRFAADFHNRNEDLSEWEEMRGIEWDLILHSDGGQLYTQLVTRSRLQYEIPCKFLLEAQYGQVKVGENFDVTVSSRNHTFGMRIDQPADNGAIKITAYIDF,not soluble
7,GPGSMGIPLPKPVMTQLQERYGNTIFRCGSNCVNGYRETMEDAHLTYLTDSWGFFGVFDGHVNDQCSQYLERAWRSAIEKESIPMTDERMKELALQIDQEWMDSGREGGSTGTFFVALKEGNKVHLQVGNVGDSRVVACIDGVCVPLTEDHKPNNEGERQRIENCAGRVENNRVDGSLAVSRAFGDREYKLGSGSQLEQKVIALADVQHKDLTFNSNDFVLLCCDGVFEGNFPNEEVVAYVKQQLETCNDLAEVAGSVCEEAIERGSRDNISCMIVQFKDGSDYAAAPHTTVVPGPFSAPRNSGFRKAYESMADKGNTTVGALLEKRYDTLKAAEALTPEETEELSQFENGPEAKLTGAERQKWFSNYFQKLCEAASNGPSDQMERLQSLQQQAGIPLSILLSLMGEQTQ,soluble
8,MGSDKIHHHHHHMWITINRNSNISLSRQIYCEIKDMILDGSLKFEQKLPSSRTLSKELSVSRNTVLDAYNQLIAEGYLETRNGYGTIVAKGISGHKVDFKLNDTFRDEKDLHTNKQKNYIDFRSGVPELKLFPRKELSKLYKQILYDLSDSDFRYGSTAGVWVLRVEISKYLFRTRGIRCNPKNIMIVSGSTQGLSLISQLLYKSNKKVAVEDPIHKGLLKVISSIGYSVVGIKVDDKGMNTNLIKSIKGISFVYTTPSHQYPLGGILPIQRRLELIKCATENDYYIIEDDYDSEFRYEGQPISSLYELSPNKVIYIGSFSKILSPAIRVGFMLLPDNILESYKTLKMYSDVHTETILQHVLAEFIGNGGLEKYIFRMKKLYNRKRKYLIKVLNTEFKNEFKIKGEAAGLHIVAHFYNVKFTESLIHKIFEAGIKVYPIQQYAIENILEYDHEIILGYAHLSFDEIEKGVKILSKIIHMNQGT,not soluble
9,SHEVVRDVPAMVVDRSNSTLSREYLRRVDATPEVSIVGHCTDMEEAKEQIRRRNAYGIIYVPEDFSEHLNTGRKAHISLYCDMSGLLYYKSLLIANTLVSLEMNKEIKIARSVGATERQGEIISYPIDYEDVALYNPTV,not soluble
10,MTNLKAVIPVAGLGMHMLPATKAIPKEMLPIVDKPMIQYIVDEIVAAGIKEILLVTHASKNAVENHFDTSYELESLLEQRVKRQLLAEVQSICPPGVTIMNVRQGEPLGLGHSILCARPAIGDNPFVVVLPDVVIDDASADPLRYNLAAMIARFNETGRSQVLAKRMPGDLSEYSVIQTKEPLDREGKVSRIVEFIEKPDQPQTLDSDIMAVGRYVLSADIWPELERTQPGAWGRIQLTDAIAELAKKQSVDAMLMTGDSYDCGKKMGYMQAFVKYGLRNLKEGAKFRKGIEKLLSE,not soluble
11,MLTIERHEQIVKLVQEKEVVTIHDLVEYTNASESTIRRDLTELEKQKKLKRIHGGASVLKKRREEPTMAEKTVKNNHEKKKIAELAASFVEDGDCLFLDAGTTTYELIPFIKTKKIVVVTNGLDSISALLEAGVETYVIGGTVKQGTRAFVGRHAIQSLQTFRFDKAFLGINGVHLEDGFTTPDPQEAYVKETALSLSREAFMLVDHSKFGETTFATVAPIHAATIVTSSQVEQQVIQAYETQTAVKVVTLLEHHHHHH,soluble
12,MGHHHHHHSHMNNRTRLALIICNTEFDHLPPRNGADFDITGMKELLEGLDYSVDVEENLTARDMESALRAFATRPEHKSSDSTFLVLMSHGILEGICGTVHDEKKPDVLLYDTIFQIFNNRNCLSLKDKPKVIIVQACRGANRGELWVRDSPASLEVASSQSSENLEEDAVYKTHVEKDFIAFCSSTPHNVSWRDSTMGSIFITQLITCFQKYSWCCHLEEVFRKVQQSFETPRAKAQMPTIERLSMTRYFYLFPGN,soluble
13,GPLGSDFPQHSQHVLEQLNQQRQLGLLCDCTFVVDGVHFKAHKAVLAACSEYFKMLFVDQKDVVHLDISNAAGLGQVLEFMYTAKLSLSPENVDDVLAVATFLQMQDIITACHALKSLA,soluble
14,MDPVEAGDWIAGRPLQLVFLSGLNPVNKPAHNSIVNVFRNRTADKPPLHIRVVSGELDIPPKRETGSGKGILRREWPQKYLDKVPALIVVFIDLEWDHPSWEEKKTEAESKVASIRGSLRHGTKIALVLIQQKSTSISDNLAADRAHELCQACSLSSKQLFILPADNLLAPNTTNLQNFALKLELAFHELCQAFYQQRLKTIRSRNIPNNSPALVVRQQFKLAFLSELRQDTHTALRNYRLAYDQCRDTVEQWDGVDVFEWRSVVGLLNYKVQQGLLKTKNSVISTRGMCELCFLHSTALEAINQMRRHTTVFFSSSPGIYPTPHLASIELLLWKSKQCYQFAHLFERSVAGGLSALATLNPGTHLDQAASIYSAANTEIAALKRNAPQNVPYPSPDPLANSSSTVFFGQRPWRINHEGLATAEVEAAAVTAIIQRLVVNHEGVISLLSAALAQYQKYGCLRMKKKVMMEMANTCYANNEIQRALRFWGLVVKDNALPYSIRKDMMHRATWAAYAITSIQDYAVCCMQLMCPAYSEVLPSDCVKGLLDVLDGKPPGSPFPNDDISQEQLHTYQLQWQHVLQEHPAFVVQASKIAELFLETRVSFLDQQTVEQDSKVAVRVEIVSKIEQVIRLNDVSVHLKAKKFPPDANQTANDADCLIYDPIHLGSVEVSKSKPLQRVVLLDLKNAKQNWIVTVTKVTLDLGNAIRGNIEFDENALNRNCHVENIIGLEFLKIGVAKTSVKLESVEKVDCLIGEVTSTELTIRNTCKSSPIHGLQLDFKRKEQKHAEAAAVLFVEQDGTELKSEFSKSVCEQLGAGEMAKIPVMFSAQLVGDYVLQLELSYKISEDGILVTKSTMLEVGVTAKEPFTVTSTVMNMNGIPMTSILNNCDHILNASIQSAASIVISSVEFLMADVVTLCDTINGGSGKNLNDKVHSEEVICYSAVIRVLVKEDESETPLGRMSVEWRRAVPNSCPVRSVAPLCRIPVLACPISISSHIKTNPAIVRQPIEICFELKSHSKEAVEISTNFDLNDVFMFSGERKVTMTVLPGATRRVTVVVMALSAGRLNFPKISLKSPQISDQTLQQSLRTLPAAIFVLPKAKDLAPHP,not soluble
15,MSLKAIFITGAGSGMGREGATLFHANGWRVGAIDRNEDGLAALRVQLGAERLWARAVDVTDKAALEGALADFCAGNVGGGLDMMWNNAGIGEGGWFEDVPYEAAVRVVDVNFKAVLTGAYAALPYLKKAPGSLMFSTSSSSGTYGMPRIAVYSATKHAVKGLTEALSVEWQRHGVRVADVLPGLIDTAILTSTRQHSDEGPYTISAEQIRAAAPKKGMFRLMPSSSVAEAAWRAYQHPTRLHWYVPRSIRWIDRLKGVSPEFVRRHIAKSLATLEPKREGHHHHHH,soluble
16,MEVSKANGTENNVEKFDAATQEATYLDEADVDAELEAMKKRLQEMEEEANRLKEVQEQSASEVPSSEEVDRRSVYVGNVDYGSTPEELQAHFKECGTINRVTILCDKFTGHPKGFAYIEFATEEGANNAVILNESLFRGRNLKVSIKRTNVPGISTTDRGRGRGFPRGIGFRGRGGLRGGFRGRGYHGFRGRGRMTPY,soluble
17,PISFGLSVRKSLAKGFSVETGLTYTLLSSDAKFADSDQKTEQKLHYLGIPLKANWNFLDKKLFTLYVSGGGMIEKCVYGKLGTEKETVKPLQFSVSGAVGAQFNATKRVGIYVEPGVAYFFDDGSDVQTIRKENPFNFNIQAGIRLTY,not soluble
18,SMQVERESISRLMQNYEKINVNEITRFSDFPLSKKTLKGLQEAQYRLVTEIQKQTIGLALQGKDVLGAAKTGSGKTLAFLVPVLEALYRLQWTSTDGLGVLIISPTRELAYQTFEVLRKVGKNHDFSAGLIIGGKDLKHEAERINNINILVCTPGRLLQHMDETVSFHATDLQMLVLDEADRILDMGFADTMNAVIENLPKKRQTLLFSATQTKSVKDLARLSLKNPEYVWVHEKA,soluble
19,GSHMASEKVAVETSVYLSELEWKSASTGYGEIQKDASCDGNTITLKGENGEKVSYDKGIGTHAHSEIVYSLEGLDYYDYFETFVGVDQEMAGTVASISFEVYLDNEKVFDSGLMTGDTTQKHVKVPIAGKNTLKLVVKDGGDSIGSDHGSFGDAKLT,soluble
20,MLTIQFLCPLPNGLHARPAWELKEQCSQWQSEITFINHRQNAKADAKSSLALIGTGTLFNDSCSLNISGSDEEQARRVLEEYIQVRFIDSDSVQPTQAELTAHPLPRSLSRLNPDLLYGNVLASGVGVGTLTLLQSDSLDSYRAIPASAQDSTRLEHSLATLAEQLNQQLRERDGESKTILSAHLSLIQDDEFAGNIRRLMTEQHQGLGAAIISNMEQVCAKLSASASDYLRERVSDIRDISEQLLHITWPELKPRNKLVLEKPTILVAEDLTPSQFLSLDLKNLAGMILEKTGRTSHTLILARASAIPVLSGLPLDAIARYAGQPAVLDAQCGVLAINPNDAVSGYYQVAQTLADKRQKQQAQAAAQLAYSRDNKRIDIAANIGTALEAPGAFANGAEGVGLFRTEMLYMDRDSAPDEQEQFEAYQQVLLAAGDKPIIFRTMDIGGDKSIPYLNIPQEENPFLGYRAVRIYPEFAGLFRTQLRAILRAASFGNAQLMIPMVHSLDQILWVKGEIQKAIVELKRDGLRHAETITLGIMVEVPSVCYIIDHFCDEVDFFSIGSNDMTQYLYAVDRNNPRVSPLYNPITPSFLRMLQQIVTTAHQRGKWVGICGELGGESRYLPLLLGLGLDELSMSSPRIPAVKSQLRQLDSEACRELARQACECRSAQEIEALLTAFTPEEDVRPLLALENIFVDQDFSNKEQAIQFLCGNLGVNGRTEHPFELEEDVWQREEIVTTGVGFGVAIPHTKSQWIRHSSISIARLAKPIGWQSEMGEVELVIMLTLGANEGMNHVKVFSQLARKLVNKNFRQSLFAAQDAQSILTLLETELTF,soluble
